± gives the standard error. This sample holds only a part of the variants without activity.
B1: glmS ribozyme (parent)
chain: AUAAAAGCGCCAGAACUACAGAAAUGUAGUUGACGAGGAGGAGGUUUAUCGAAUUUUCGGCGGAUGCCUCCAAA

How the values were obtained:
Details in all cases: with glucosamine-6-phosphate
glucosamine-6-phosphate [1] = variants of: B1; experiment: self-cleavage kobs at 40 uM GlcN6P; higher = faster cleavage; RNA array
Method in brief: (§1)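 Barcoded ribozyme variants were transcribed in situ on sequenced MiSeq chips by E. coli RNA polymerase. At 37 °C, a hybridised Cy3 probe tracked them while glucosamine-6-phosphate (40 μM to 10 mM) in HEPES/KCl/Mg(OAc)2 buffer flowed in and tiles were imaged over ~14 h. Per-tile medians of signals normalised to baseline and to non-cleaving reference variants were fit to one- or two-exponential decays, giving kobs. kcat and KM came from weighted Michaelis–Menten fits across concentrations.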

glucosamine-6-phosphate [2] = variants of: B1; experiment: self-cleavage kobs at 10000 uM GlcN6P; higher = faster cleavage; RNA array
Method in brief: as §1

glucosamine-6-phosphate [3] = variants of: B1; experiment: self-cleavage kobs at 160 uM GlcN6P; higher = faster cleavage; RNA array
Method in brief: as §1

glucosamine-6-phosphate [4] = variants of: B1; experiment: self-cleavage kobs at 640 uM GlcN6P; higher = faster cleavage; RNA array
Method in brief: as §1

glucosamine-6-phosphate [5] = variants of: B1; experiment: self-cleavage kobs at 2500 uM GlcN6P; higher = faster cleavage; RNA array
Method in brief: as §1

Row | Variant | self-cleavage kobs at 40 uM GlcN6P (glucosamine-6-phosphate [1]) [s⁻¹] | self-cleavage kobs at 10000 uM GlcN6P (glucosamine-6-phosphate [2]) [s⁻¹] | self-cleavage kobs at 160 uM GlcN6P (glucosamine-6-phosphate [3]) [s⁻¹] | self-cleavage kobs at 640 uM GlcN6P (glucosamine-6-phosphate [4]) [s⁻¹] | self-cleavage kobs at 2500 uM GlcN6P (glucosamine-6-phosphate [5]) [s⁻¹]
1 | AUAAAAGCGCCAGAACUACAGAAAUGUAGUUGACGAGGAUGUGGUUUAUCGAAUUUUCGGAGGAUGCCUCCAAA | < 1e-05 | < 1e-05 |  |  | 
2 | AUAAAAGCGCCAGAACUACAGAAAUGUAGUUGACGAGGAUGAGGUUUAUCGAAUUUUCGGCGGAUGCCUCAAAA | 0.000671 ± 6.2e-05 | 0.0484 ± 0.0079 | 0.00189 ± 0.00028 | 0.00561 ± 0.00069 | 0.00906 ± 0.0019
3 | AUAAAAGCGCCAGAACUACAGAAAUGUAGUUGACGAGGACGAGGUUUAUCGAAUUUUCGGCUGAUGCCUCCAAA | < 1e-05 | < 1e-05 | < 1e-05 | < 1e-05 | < 1e-05
4 | AUAAAAGCGCCAGAACUACAGAAAUGUAGUUGACGAGGAUGAGGUUUAUCGAAUUUUCGGAGGAUACCUUCAAA | < 1e-05 | < 1e-05 |  |  | 
5 | AUAAAAGCGCCAGAACUACAGAAAUGUAGUUGACGAGGAAGAGGUUUAUCGAAUCUUCGGAGGAUGCCUCCAAA | < 1e-05 |  |  |  | 
6 | AUAAAAGCGCCAGAACUACAGAAAUGUAGUUGACGAGGACGAGGUUUAUCGAAUUUUCGGCGGAUGCCGCCAAA | < 1e-05 | < 1e-05 |  | < 1e-05 | 
7 | AUAAAAGCGCCAGAACUACAGAAAUGUAGUUGACGAGGACGAGGUUUAUCGAAUUUUCGGCGGAUGGCUCUAAA | < 1e-05 |  |  |  | 
8 | AUAAAAGCGCCAGAACUACAGAAAUGUAGUUGACGAGGACGAGGUUUAUCGAAUUUUCUGCGGAUGCAUCAAAA | < 1e-05 |  |  |  | 
9 | AUAAAAGCGCCAGAACUACAGAAAUGUAGUUGACGAGGACGAGGUUUAUCGAAGUGUCGGCGGAUGCCUCCAAA | 4.04e-05 ± 1.9e-05 | 0.000719 ± 0.00012 |  |  | 0.000625 ± 0.00018
10 | AUAAAAGCGCCAGAACUACAGAAAUGUAGUUGACGAGGACGAGGUUUAUCUAAUUUUCGGCGGAUGCCUCCAAA | < 1e-05 | < 1e-05 | < 1e-05 | < 1e-05 | < 1e-05
11 | AUAAAAGCGCCAGAACUACAGAAAUGUAGUUGACGAGGACGAGGUUUAUCGAAUUUUCGGCGGAUGCCUCCAAA | 0.000161 ± 2.8e-06 |  | 0.000388 ± 1.8e-05 | 0.00123 ± 3.8e-05 | 0.00453 ± 0.0002
12 | AUAAAAGCGCCAGAACUACAGAAAUGUAGUUGACGAGGAUGAGGUUUAUCGAAUUUUCGGCGGAUGCCUCCAAA | 0.000216 ± 1.5e-05 |  | 0.00045 ± 1.9e-05 | 0.00199 ± 0.0002 | 0.00539 ± 0.00024
13 | AUAAAAGCGCCAGAACUACAGAAAUGUAGUUGACGAGGAUGGGGUUUAUCCGAUUUUCGGCGGAUGCCUGCAAA | < 1e-05 | < 1e-05 |  |  | < 1e-05
